Data published in patent US20190248864A1.

Experiments:
[1] = biological target: each construct (cells transfected with either wild type or the PCSK9 binding-deficient LDLR mRNAs); assay: flow cytometry, half-maximal cell association of BODIPY-LDL on transfected HEK293 cells
[2] = biological target: mouse LDLR mutant 1 (LDLR_N317A, K832R, C841A) (mouse) (UniProt P35951); assay: cell-based or functional assay
[3] = biological target: wild type mouse LDLR (mouse) (UniProt P35951); assay: cell-based or functional assay

EC50 [1] [ng/mL]	Average LDLR MCF, HeLa cells, co-transfected with IDOL (with Luciferase: 8369) [2] [MCF]	Average LDLR MCF, Hepa1-6, co-transfected with IDOL (with Luciferase: 14080) [2] [MCF]	LDLR expression as percent of the baseline, HeLa cells (% of the baseline) [2]	LDLR expression as percent of the baseline, Hepa1-6 (% of the baseline) [2]	Average LDLR MCF, HeLa cells, co-transfected with IDOL (with Luciferase: 5773) [3] [MCF]	Average LDLR MCF, Hepa1-6, co-transfected with IDOL (with Luciferase: 5272) [3] [MCF]	LDLR expression as percent of the baseline, HeLa cells (% of the baseline) [3]	LDLR expression as percent of the baseline, Hepa1-6 (% of the baseline) [3]	LDLR expression as percent of the baseline, Hepa1-6 cells given no LDLR mRNA (luciferase row of Table 15) (% of the baseline) [3]	Molecule
0.6 to 0.7	–	–	–	–	–	–	–	–	–	BODIPY-labeled LDL (low density lipoprotein) (from UniProt P04114 28-4563) (ligand)
–	7050	8860	84.2	62.9	2920	881	50.5	16.7	62.3	mouse IDOL (inducible degrader of the LDLR) (enzyme, UniProt Q8BM54 1-445, looked up) MLCYVTRPDAVLMEVEVEAKANGEDCLNQVCRRLGIIEVDYFGLQFTGSKGESLWLNLRNRISQQMDGLAPYRLKLRVKFFVEPHLILQEQTRHIFFLHIKESLLAGHLQCSPEQAVELSALLAQTKFGDYNQNTAQYSYEDLCEKELSSSTLNSIVAKHKELEGISQASAEYQVLQIVSAMENYGIEWHAVRDSEGQKLLIGVGPEGISICKEDFSPINRIAYPVVQMATQSGKNVYLTVTKESGNSIVLLFKMISTRAASGLYRAITETHAFYRCDTVTSAVMMQYSRDLKGHLASLFLNENINLGKKYVFDIKRTSKEVYDHARRALYNAGVVDLVSRSDQSPPSSPLKSSDSSMSCSSCEGLSCQQTRVLQEKLRKLKEAMLCMACCEEEINSTFCPCGHTVCCESCAAQLQSCPVCRSRVEHVQHVYLPTHTSLLNLTVI
